One test deals with LILRB2 (Homo sapiens) (UniProt Q8N423). Particulars: cited from earlier work.
The target of test [1] is ANGPTL2-Flag (angiopoietin-like protein 2) (UniProt Q9UKU9). Put plainly: flow cytometry on cells. To be noted: MAG constructs expressed on 293T cells; ANGPTL2 row of plots (representative plot; n = 3 in panel H); parent: 41.7. (In flow cytometry, cells or beads pass a laser one at a time.)
The target of test [2] is T1, ANGPTL2-Flag (angiopoietin-like protein 2), Q9UKU9.
T1 chain: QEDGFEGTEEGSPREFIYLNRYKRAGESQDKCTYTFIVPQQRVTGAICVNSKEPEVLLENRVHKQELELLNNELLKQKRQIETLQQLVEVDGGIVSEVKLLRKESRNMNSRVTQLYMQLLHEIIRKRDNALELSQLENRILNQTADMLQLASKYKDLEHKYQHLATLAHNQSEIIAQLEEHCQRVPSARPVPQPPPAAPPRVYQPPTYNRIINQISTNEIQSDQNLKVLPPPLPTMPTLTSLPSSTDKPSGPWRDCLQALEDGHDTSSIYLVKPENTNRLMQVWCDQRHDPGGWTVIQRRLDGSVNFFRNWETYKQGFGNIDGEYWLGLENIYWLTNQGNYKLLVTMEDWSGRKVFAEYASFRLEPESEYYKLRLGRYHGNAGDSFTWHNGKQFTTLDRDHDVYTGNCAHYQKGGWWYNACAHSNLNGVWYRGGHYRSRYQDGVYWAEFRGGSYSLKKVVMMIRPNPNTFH
Put plainly: flow cytometry on cells. Particulars: chain shown with the change; MAG constructs expressed on 293T cells; ANGPTL2 row of plots (representative plot; n = 3 in panel H); parent: 41.7.

Test [3] has as its target T2, murine MAG-ECD-Fc (extracellular domain of murine MAG fused with human Fc) (murine, UniProt P20917 20-516).
T2 construct: myelin-associated glycoprotein (MAG), murine, extracellular domain (ECD); also called mouse MAG-hFc; murine MAG-hFC; source: 293T, transfected, in conditioned medium
T2 sequence (looked up): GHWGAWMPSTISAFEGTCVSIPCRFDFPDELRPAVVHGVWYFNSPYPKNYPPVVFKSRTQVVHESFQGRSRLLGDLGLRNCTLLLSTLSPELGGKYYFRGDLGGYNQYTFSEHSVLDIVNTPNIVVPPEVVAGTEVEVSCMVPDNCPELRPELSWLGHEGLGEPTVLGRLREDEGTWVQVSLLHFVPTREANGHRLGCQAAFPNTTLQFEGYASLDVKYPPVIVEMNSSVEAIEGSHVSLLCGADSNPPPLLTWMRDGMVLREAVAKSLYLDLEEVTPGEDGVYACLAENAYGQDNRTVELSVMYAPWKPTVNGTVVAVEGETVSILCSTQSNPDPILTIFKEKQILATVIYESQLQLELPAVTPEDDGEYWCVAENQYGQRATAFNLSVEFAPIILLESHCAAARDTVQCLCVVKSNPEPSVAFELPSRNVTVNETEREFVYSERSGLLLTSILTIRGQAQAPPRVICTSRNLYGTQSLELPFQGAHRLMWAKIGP
Put plainly: SPR; Biacore T200, CM5 chip; MAG-hFc from conditioned medium captured by pre-immobilised anti-hFc antibody; purified ANGPTL2 injected at indicated doses. Particulars: one partner purified.

The target of test [4] is human MAG-ECD-FC (extracellular domain of human MAG fused with human Fc) (human) (UniProt P20916). The test is described as above.
The target of test [5] is T2, murine MAG-ECD-Fc (extracellular domain …). Put plainly: BLI; Octet RED96/RED96e; MAG-hFc from conditioned medium loaded on AHC biosensors; purified ANGPTL2 at indicated doses in kinetics buffer. To be noted: one partner purified.
The target in test [6] is human MAG-ECD-FC (extracellular domain of human MAG fused with human Fc) (human) (UniProt P20916). The test is described as above.

Sequence of LILRB2 (Homo sapiens) (Q8N423 22-460): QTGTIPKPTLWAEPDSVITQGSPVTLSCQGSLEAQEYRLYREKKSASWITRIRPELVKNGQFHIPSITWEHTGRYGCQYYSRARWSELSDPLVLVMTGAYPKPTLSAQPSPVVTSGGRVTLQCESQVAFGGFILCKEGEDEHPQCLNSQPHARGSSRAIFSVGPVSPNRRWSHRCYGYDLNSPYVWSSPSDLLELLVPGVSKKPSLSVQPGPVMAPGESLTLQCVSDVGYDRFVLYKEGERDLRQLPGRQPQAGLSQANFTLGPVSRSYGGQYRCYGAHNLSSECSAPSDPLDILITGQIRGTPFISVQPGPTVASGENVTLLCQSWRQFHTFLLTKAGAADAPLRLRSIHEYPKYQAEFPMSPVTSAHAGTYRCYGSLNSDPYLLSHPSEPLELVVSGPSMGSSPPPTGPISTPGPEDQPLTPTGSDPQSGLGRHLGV

Consider ANGPTL2 (from UniProt Q9UKU9), for which the Kd (as a rule, the constant that tells how readily two partners part at equilibrium) in the test with LILRB2 (Homo sapiens) was 5.5 nM.
Turning to “human MAG (myelin-associated glycoprotein), full-length, fused with EGFP (N1-hMAG-EGFP) (from UniProt P20916) G389D; Y341A”, the response (% of EGFP+ cells binding ANGPTL2) in test [1] was found to be 0.33.

B1: human MAG (myelin-associated glycoprotein), full-length, fused with EGFP (N1-hMAG-EGFP), P20916 G301D; Y303A (protein)
chain: GHWGAWMPSSISAFEGTCVSIPCRFDFPDELRPAVVHGVWYFNSPYPKNYPPVVFKSRTQVVHESFQGRSRLLGDLGLRNCTLLLSNVSPELGGKYYFRGDLGGYNQYTFSEHSVLDIVNTPNIVVPPEVVAGTEVEVSCMVPDNCPELRPELSWLGHEGLGEPAVLGRLREDEGTWVQVSLLHFVPTREANGHRLGCQASFPNTTLQFEGYASMDVKYPPVIVEMNSSVEAIEGSHVSLLCGADSNPPPLLTWMRDGTVLREAVAESLLLELEEVTPAEDDVAACLAENAYGQDNRTVGLSVMYAPWKPTVNGTMVAVEGETVSILCSTQSNPDPILTIFKEKQILSTVIYESELQLELPAVSPEDDGEYWCVAENQYGQRATAFNLSVEFAPVLLLESHCAAARDTVQCLCVVKSNPEPSVAFELPSRNVTVNESEREFVYSERSGLVLTSILTLRGQAQAPPRVICTARNLYGAKSLELPFQGAHRLMWAKIGPVGAVVAFAILIAIVCYITQTRRKKNVTESPSFSAGDNPPVLFSSDFRISGAPEKYESERRLGSERRLLGLRGEPPELDLSYSHSDLGKRPTKDSYTLTEELAEYAEIRVK
Take B1: the response (% of EGFP+ cells binding ANGPTL2) in test [2] was determined as 0.61.

B2: ANGPTL2-Flag (angiopoietin-like protein 2) (ligand, UniProt Q9UKU9 23-493, looked up)
chain: QEDGFEGTEEGSPREFIYLNRYKRAGESQDKCTYTFIVPQQRVTGAICVNSKEPEVLLENRVHKQELELLNNELLKQKRQIETLQQLVEVDGGIVSEVKLLRKESRNMNSRVTQLYMQLLHEIIRKRDNALELSQLENRILNQTADMLQLASKYKDLEHKYQHLATLAHNQSEIIAQLEEHCQRVPSARPVPQPPPAAPPRVYQPPTYNRIINQISTNEIQSDQNLKVLPPPLPTMPTLTSLPSSTDKPSGPWRDCLQALEDGHDTSSIYLVKPENTNRLMQVWCDQRHDPGGWTVIQRRLDGSVNFFRNWETYKQGFGNIDGEYWLGLENIYWLTNQGNYKLLVTMEDWSGRKVFAEYASFRLEPESEYYKLRLGRYHGNAGDSFTWHNGKQFTTLDRDHDVYTGNCAHYQKGGWWYNACAHSNLNGVWYRGGHYRSRYQDGVYWAEFRGGSYSLKKVVMMIRPNPNTFH
notes: angiopoietin-like protein 2 (ANGPTL2), secreted into the conditioned medium of 293T cells; The same ANGPTL2-Flag was used on human and murine MAG; also called purified ANGPTL2 protein; source: 293T, transfected with CMV-ANGPTL2-Flag; conditioned medium collected after 48 h, or purified from it with M2 resin
With B2, the Kd in test [3] was determined as 3.08 nM; in test [4], 6.47 nM; in test [5], 16.4 nM; in test [6] it was 9.34 nM.

These data come from publication PMC9976406, “ANGPTL2 binds MAG to efficiently enhance oligodendrocyte differentiation” (Cell & Bioscience, 2023).
